According to patent US20050153395A1, “Unique integrin binding site in connective tissue growth factor (CTGF)” (CHILDREN'S HOSPITAL INC., priority 2003, published 2005):

Key:
[1] = target: integrin αvβ3 on activated rat hepatic stellate cells (HSC) (rat) (UniProt Q8R2H2); test: cell-based or functional assay
[2] = target: integrin αvβ3 (purified, human) (human) (UniProt P06756); test: solid phase ELISA, coated ligand, purified αvβ3 (1 µg/ml)
integrin αvβ3 (purified, human) (human), sequence (P06756 31-1048, form in doubt, chain 1 of 2): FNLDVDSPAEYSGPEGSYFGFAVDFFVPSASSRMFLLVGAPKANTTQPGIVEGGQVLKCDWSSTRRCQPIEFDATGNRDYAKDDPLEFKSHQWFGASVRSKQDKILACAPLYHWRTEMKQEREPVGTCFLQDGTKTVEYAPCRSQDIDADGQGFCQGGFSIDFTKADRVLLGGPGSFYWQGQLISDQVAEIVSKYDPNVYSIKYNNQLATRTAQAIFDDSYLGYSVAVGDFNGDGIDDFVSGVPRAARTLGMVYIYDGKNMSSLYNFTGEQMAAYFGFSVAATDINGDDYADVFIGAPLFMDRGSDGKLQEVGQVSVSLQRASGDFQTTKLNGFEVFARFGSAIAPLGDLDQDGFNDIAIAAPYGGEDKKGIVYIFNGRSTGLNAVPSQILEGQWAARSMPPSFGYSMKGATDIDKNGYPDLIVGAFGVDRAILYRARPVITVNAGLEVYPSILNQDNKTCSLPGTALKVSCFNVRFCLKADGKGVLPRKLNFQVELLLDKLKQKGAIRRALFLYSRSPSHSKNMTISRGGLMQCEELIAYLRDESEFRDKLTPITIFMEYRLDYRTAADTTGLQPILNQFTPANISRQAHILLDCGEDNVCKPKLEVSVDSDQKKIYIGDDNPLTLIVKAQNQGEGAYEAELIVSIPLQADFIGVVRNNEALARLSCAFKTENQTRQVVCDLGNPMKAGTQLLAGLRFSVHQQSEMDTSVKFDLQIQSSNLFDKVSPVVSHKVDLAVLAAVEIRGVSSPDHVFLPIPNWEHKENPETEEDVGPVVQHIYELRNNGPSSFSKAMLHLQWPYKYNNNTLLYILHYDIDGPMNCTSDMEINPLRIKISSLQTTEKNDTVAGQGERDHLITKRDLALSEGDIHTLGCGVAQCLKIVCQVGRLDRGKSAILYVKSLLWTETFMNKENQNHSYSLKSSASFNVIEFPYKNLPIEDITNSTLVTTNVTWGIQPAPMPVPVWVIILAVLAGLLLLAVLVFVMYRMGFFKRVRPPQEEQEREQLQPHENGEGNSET
integrin αvβ3 (purified, human) (human), sequence (P05106 27-788, form in doubt, chain 2 of 2, further chain): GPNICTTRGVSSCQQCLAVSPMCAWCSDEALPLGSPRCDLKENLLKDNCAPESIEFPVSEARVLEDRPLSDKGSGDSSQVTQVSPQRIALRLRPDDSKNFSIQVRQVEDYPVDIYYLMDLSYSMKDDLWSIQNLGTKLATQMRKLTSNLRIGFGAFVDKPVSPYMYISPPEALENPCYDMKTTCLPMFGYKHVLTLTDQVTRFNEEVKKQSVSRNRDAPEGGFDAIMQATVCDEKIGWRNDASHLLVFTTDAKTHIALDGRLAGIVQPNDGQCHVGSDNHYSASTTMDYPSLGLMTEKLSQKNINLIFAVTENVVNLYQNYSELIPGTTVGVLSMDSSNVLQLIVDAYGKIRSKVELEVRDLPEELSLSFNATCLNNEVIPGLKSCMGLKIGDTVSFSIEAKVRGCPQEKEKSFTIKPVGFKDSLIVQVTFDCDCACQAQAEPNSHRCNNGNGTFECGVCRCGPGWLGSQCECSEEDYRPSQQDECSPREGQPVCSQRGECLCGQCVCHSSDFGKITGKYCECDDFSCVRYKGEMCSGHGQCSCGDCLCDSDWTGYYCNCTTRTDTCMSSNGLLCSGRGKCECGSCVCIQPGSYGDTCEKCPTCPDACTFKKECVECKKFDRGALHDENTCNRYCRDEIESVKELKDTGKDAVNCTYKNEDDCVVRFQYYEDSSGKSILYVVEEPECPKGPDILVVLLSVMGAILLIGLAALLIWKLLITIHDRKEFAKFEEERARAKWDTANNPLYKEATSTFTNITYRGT

integrin αvβ3 on activated rat hepatic stellate cells (HSC) (rat), sequence (Q8R2H2 26-787): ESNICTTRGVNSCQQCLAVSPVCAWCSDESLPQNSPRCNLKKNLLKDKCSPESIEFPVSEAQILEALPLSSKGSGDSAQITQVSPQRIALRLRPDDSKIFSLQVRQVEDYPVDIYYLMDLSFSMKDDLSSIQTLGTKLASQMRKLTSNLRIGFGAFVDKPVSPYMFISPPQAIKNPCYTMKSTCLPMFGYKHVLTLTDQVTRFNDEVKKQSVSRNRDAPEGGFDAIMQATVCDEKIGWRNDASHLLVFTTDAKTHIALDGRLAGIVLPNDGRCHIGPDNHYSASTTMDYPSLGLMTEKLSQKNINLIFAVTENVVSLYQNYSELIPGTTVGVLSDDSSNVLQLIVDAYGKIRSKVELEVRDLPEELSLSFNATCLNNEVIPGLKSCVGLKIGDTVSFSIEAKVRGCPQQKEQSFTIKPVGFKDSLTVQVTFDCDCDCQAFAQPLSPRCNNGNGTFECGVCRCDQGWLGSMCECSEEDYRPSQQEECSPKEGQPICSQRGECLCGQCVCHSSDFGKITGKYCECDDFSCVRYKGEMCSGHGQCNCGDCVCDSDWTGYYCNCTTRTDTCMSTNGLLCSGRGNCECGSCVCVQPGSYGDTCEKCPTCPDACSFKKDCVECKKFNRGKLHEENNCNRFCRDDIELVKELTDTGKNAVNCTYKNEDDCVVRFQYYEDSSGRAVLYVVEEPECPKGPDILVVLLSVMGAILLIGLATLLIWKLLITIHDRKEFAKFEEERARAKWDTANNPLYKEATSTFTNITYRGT

Substance: vitronectin (ligand)
- decrease in HSC binding to vitronectin by RGD peptides (GRGDsp, Echistatin) [1]: 100%
- coating concentration at saturation of binding [2]: 4 µg/mL
